Data set [1] has as its target T1, HIV-1 reverse transcriptase (Human immunodeficiency virus 1, UniProt P03366;P03366 P03366:600-1159,P03366:600-1039). Description: inhibition; Ki', RNA-dependent DNA polymerase activity. Particulars: tags: expressed in E. coli, purified per Davies et al. 1991. The text has this:
(§1) Assay For Inhibition of RNA-Dependent DNA Polymerase Activity. A substrate for the RNA-dependent DNA polymerase activity of HIV-1 RT was assembled by annealing an 18 nucleotide, 5' end-labeled DNA primer to a 30 nucleotide RNA template with a complementary 3' end (see FIG. 10), and purifying the duplex on a 12% non-denaturing acrylamide gel. The primer sequence matched the 3' terminal 18 nucleotides of tRNA^{Lys,3}, responsible for priming minus-strand DNA synthesis of the HIV-1 genome, and the template sequence paralleled the HIV-1 genomic primer binding site and downstream 12 nucleotides. A dilution series of inhibitory ssDNA ligand (to give a final concentration of 0, 1, 3, 9, 27, or 81 nM) was denatured in HRT Buffer at 70° C. for 5 minutes and allowed to renature slowly at 20° C. The primer:template substrate was added to a final concentration of 40 nM, along with dNTP's at 400 μM. The 10 μl reaction was initiated with the addition of either HIV-1, AMV, or MMLV-RT (to give a final concentration of 10 nM), allowed to proceed for 5 minutes at 37° C., and terminated with one volume of formamide. Extension products were separated on an 8% denaturing acrylamide gel and quantitated with an Ambis radioanalytic imager.
The ability of each of the 8 isolates to inhibit the RNA-dependent DNA polymerase activity of HIV-1 RT was assayed by measuring the decrease in extension product formation from a primer::template substrate as a function of inhibitor concentration (FIGS. 10A–10E). The substrate for the inhibition assay was a DNA:RNA heteroduplex consisting of an 18 nucleotide end-labeled DNA primer (SEQ ID NO: 74) identical in sequence to the 3' end of tRNA^{Lys,3} annealed to a 30 nucleotide RNA template (SEQ ID NO: 75) whose sequence matches the genomic primer binding site and the first twelve transcribed nucleotides. Extension reactions were performed as described in Example 1 in the presence of 0, 81, 27, 9, 3, and 1 nM inhibitor as indicated in FIG. 10.

For data set [2], the target named is T1, HIV-1 reverse transcriptase. Description: filter; first 49 nt of RT1. Particulars: tags: expressed in E. coli, purified per Davies et al. 1991.
For data set [3] the target is unchanged. Description: filter; HRT buffer, 6 mM MgCl2, 37 C. The conditions noted are these: tags: expressed in E. coli, purified per Davies et al. 1991, label: 5'-32P. How it is done: Nitrocellulose Filter Binding Assays. Oligonucleotides bound to proteins can be effectively separated from the unbound species by filtration through nitrocellulose membrane filters (Yarus, M. and Berg, P. (1970) Anal. Biochem. 35:450–465; Lowary, P. T. and Uhlenbeck, O. C. (1987) Nucleic Acids Res. 15:10483–10493; Tuerk, C. and Gold, L. (1990) Science 249:505–510). The affinity of the random ssDNA library for HIV-1 RT was determined using a protein excess nitrocellulose filter binding assay as described in Carey, J. et al. (1983) Biochemistry 22:2601–2609. Selections were performed with a saturating ssDNA concentration to promote competition among DNA ligands for a limited number of available target binding sites.
(§2) Binding Curves Confirm High Affinity of Individual Ligands. Affinity values of each of the eight chosen isolates for HIV-1 RT were measured using the filter binding assay described in Example 1 (FIGS. 7A–C). […] Differences in maximum percent bound likely reflect competing ligand structures with lower affinity. […] Indicated dissociation constants were determined as in Example 1.

For data set [4] the target is unchanged. Description: inhibition; Ki', RNA-dependent DNA polymerase activity, 10 nM RT, 40 nM substrate, 37 C. Particulars: tags: expressed in E. coli, purified per Davies et al. 1991; label: 5'-32P; internal loop (AA opposite CG) helix.
From the text: as §1, with “imager. […]” for “imager.”

For data set [5] the target is unchanged. Description: filter; competition against RT1 gave Kc 3 nM (Example 5, FIG. 14). Particulars: tags: expressed in E. coli, purified per Davies et al. 1991; pseudoknot. How it is done: 15:10483–10493; Tuerk, C. and Gold, L. (1990) Science 249:505–510). The affinity of the random ssDNA library for HIV-1 RT was determined using a protein excess nitrocellulose filter binding assay as described in Carey, J. et al. (1983) Biochemistry 22:2601–2609. Selections were performed with a saturating ssDNA concentration to promote competition among DNA ligands for a limited number of available target binding sites.
as §2

B1: RT10 (ssDNA)
DNA: ATCCGCCTGATTAGCGATACTTATTTGCCCTTGCAGGCCGCAGGAGTGCTAGCAGTACTTGAGCAAAATCACCTGCAGGGG
Take B1: in data set [1] (label: 5'-32P, intramolecular primer:template junction), the Ki worked out at 62 nM.

B2: RT1t49 (ssDNA)
DNA: ATCCGCCTGAATAGCGATACTCAGAAGGATAAACTGTCCAGAACTTGGA
Turning to B2, the Kd in data set [2] was determined as 4 nM.

B3: RT1 (ssDNA)
DNA: ATCCGCCTGATTAGCGATACTCAGAAGGATAAACTGTCCAGAACTTGGAATATATCACTTGAGCAAAATCACCTGCAGGGG
B3 showed a Kd in data set [3] (internal loop (AA opposite CG) helix) of roughly 1 nM. In addition, affinity in data set [4] was put at a Ki of 0.3 nM.

B4: RT36 (ssDNA)
DNA: ATCCGCCTGATTAGCGATACTAAGCTCTTAGTTGATGCGCGGTCAAAATTTAAGCTACTTGAGCAAAATCACCTGCAGGGG
Molecule B4 registered a Ki in data set [1] (label: 5'-32P, internal loop variant (AA opposite A)) of 6.5 nM.

B5: RT26 (ssDNA)
DNA: ATCCGCCTGATTAGCGATACTTACGTGAGCGTGCTGTCCCCTAAAGGTGATACGTCACTTGAGCAAAATCACCTGCAGGGG
The molecule B5 had a Kd in data set [3] (intramolecular primer:template junction with internal loop (AA opposite CG)) of roughly 1 nM. For the same molecule, in data set [1] (label: 5'-32P, intramolecular primer:template junction with internal loop (AA opposite CG)), the affinity, expressed as Ki, was 2.7 nM.

B6: RT6 (ssDNA)
DNA: ATCCGCCTGATTAGCGATACTCAGGCGTTAGGGAAGGGCGTCGAAAGCAGGGTGGGACTTGAGCAAAATCACCTGCAGGGG
Regarding B6, in data set [3], the Kd came to 5 nM. Further, in data set [1] (label: 5'-32P), the Ki is 30 nM.

B7: RT4 (ssDNA)
DNA: ATCCGCCTGATTAGCGATACTTTAGCAAAGTTGAAGCCGGACTAACAAGCTCTACGACTTGAGCAAAATCACCTGCAGGGG
In turn, B7 gave a Ki in data set [1] (label: 5'-32P, internal loop variant (AA opposite AG)) of 4.1 nM.

B8: RT8 (ssDNA)
DNA: ATCCGCCTGATTAGCGATACTAGCCAGTCAAGTTAATGGGTGCCATGCAGAAGCAACTTGAGCAAAATCACCTGCAGGGG
B8 displayed an inhibition constant (Ki) in data set [1] (label: 5'-32P, internal loop variant (CAA opposite TAG)) of 13 nM. This lies in the double-digit nanomolar range.

B9: RNA pseudoknot (RNA pk) (ssRNA)
RNA: GGUCCGAAGUGCAACGGGAAAAUGCACU
In the case of B9, the affinity in data set [5], expressed as Kd, was 5 nM. The molecule also came in with a Ki in data set [1] (pseudoknot) of 4.7 nM.

By Ki is commonly meant the dissociation constant of the complex between target and ligand, obtained from inhibition or displacement. The low end stands for tighter binding, the high end for weaker binding. One may read the Kd as the constant that tells how readily two partners part at equilibrium. A higher Kd goes with weaker binding.

The values are drawn from US5786462, “High affinity ssDNA ligands of HIV-1 reverse transcriptase” (NeXstar Pharmaceuticals, Inc.).
